Results as given in US20110250213A1 (JN BIOSCIENCES, published 2011).

Key:
human CD122 (human) = human CD122 (human) (UniProt P14784); assay: cell-based or functional assay
mouse CD122 = target: T1, mouse CD122 (mouse, UniProt P16297 27-240, limits assumed); assay: assay not specified
T1 sequence (looked up): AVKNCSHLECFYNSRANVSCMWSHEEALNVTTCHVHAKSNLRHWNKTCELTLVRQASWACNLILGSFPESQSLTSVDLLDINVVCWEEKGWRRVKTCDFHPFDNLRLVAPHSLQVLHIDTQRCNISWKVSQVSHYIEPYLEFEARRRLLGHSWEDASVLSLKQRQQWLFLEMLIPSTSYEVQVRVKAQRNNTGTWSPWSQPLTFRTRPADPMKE

human CD122 (human), sequence (P14784 27-551): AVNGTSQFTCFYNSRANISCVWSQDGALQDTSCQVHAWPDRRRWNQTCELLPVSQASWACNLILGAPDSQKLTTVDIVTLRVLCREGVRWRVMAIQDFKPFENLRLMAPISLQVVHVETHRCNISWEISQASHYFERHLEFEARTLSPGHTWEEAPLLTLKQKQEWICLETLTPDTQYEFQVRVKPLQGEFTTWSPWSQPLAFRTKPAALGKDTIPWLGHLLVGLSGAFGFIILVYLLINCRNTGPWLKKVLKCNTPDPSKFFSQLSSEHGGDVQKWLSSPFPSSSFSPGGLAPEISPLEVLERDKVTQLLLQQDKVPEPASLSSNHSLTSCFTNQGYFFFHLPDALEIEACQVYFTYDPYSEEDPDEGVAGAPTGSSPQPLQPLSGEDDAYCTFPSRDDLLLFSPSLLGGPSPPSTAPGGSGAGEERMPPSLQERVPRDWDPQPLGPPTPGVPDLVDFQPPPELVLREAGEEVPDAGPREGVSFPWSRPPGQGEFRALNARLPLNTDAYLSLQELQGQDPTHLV

Which antibody concentration required for 50% inhibition of proliferation mediated by trans-presentation of IL-15 to TF-1β cells (human CD122 (human)) does the source give for HuMik-β1 (antibody) here?
Its antibody concentration required for 50% inhibition of proliferation mediated by trans-presentation of IL-15 to TF-1β cells is 10 µg/mL.

B1: ABC2 (antibody, mouse IgG1, V domains shown)
VH: EVKLVESGGGLVQPGGSLRLSCATSGFTFSDFYMEWVRQPPGKRLEWIAASRNKANDYTTEYSASVKGRFIVSRDTSQSILYLQMNALRAEDTAIYYCARSYYRYDGMDYWGQGTSVTVSS
VL: QVVLTQSPVIMSASPGEKVTMTCSAISSVSYMYWYQQKPGSSPRLLIYDTSNLVSGVPVRFSGSGSGTSYSLTISRMEAEDAATYYCQQWNTYPYTFGGGTKLEIK
notes: Mouse IgG1/kappa purified from hybridoma; also called mouse anti-human CD122 monoclonal antibody ABC2
Does B1 bind (mouse CD122)?
Result: no binding

B2: ABC101 (antibody, mouse IgG2b, V domains shown)
VH: DVQLQESGPGLVKPSQTVSLTCTVTGYSITNDNHWWNWIRQVSGSKLEWMGYIDSSGSSDNNPSLKSQISITRDTSKNQLFLQLNSVTIEDIGTYYCARGGGRDYYGMDYWGQGTSVTVSS
VL: DIVLTQSPASLAVSLGQRATISCRASQSVSTSSYSYVHWYQQKPGQPPKLLIKYASNLESGVPARFSGSGSGTDFTLNIHPVEEEDTATYYCQHSWDIPFTFGGGTKLEIK
notes: Mouse IgG2b/kappa purified from hybridoma; also called mouse anti-human CD122 monoclonal antibody ABC101
Does B2 bind (mouse CD122)?
Result: no binding
